Among the targets are ARHGEF12, Q9NZN5-2; CNKSR3, Q6P9H4; DLG5_2, Q8TDM6; IL16_2, Q14005; LMO7, Q8WWI1; MAGI1_3, Q96QZ7; NHERF2_1, Q15599.
Common to all, as to assay: holdup assay
What all share (set-up): key: below the threshold = too weak to quantify, mostly under pKd 3.1 to 4

Another assay has as its target T1, APBA3_2, O96018.
T1 sequence (O96018 480-570, limits assumed, looked up): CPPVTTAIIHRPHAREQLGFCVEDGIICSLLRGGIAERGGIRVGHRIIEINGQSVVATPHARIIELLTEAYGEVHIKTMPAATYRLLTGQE

The next assay deals with T2, DVL1, O14640.
T2 sequence (O14640 246-333, limits assumed, looked up): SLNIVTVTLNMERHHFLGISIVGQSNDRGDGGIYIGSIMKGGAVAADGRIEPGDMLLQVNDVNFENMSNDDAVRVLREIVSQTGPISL

Another assay concerns the target T3, NHERF1_2, O14745.
T3 sequence (O14745 149-244, limits assumed, looked up): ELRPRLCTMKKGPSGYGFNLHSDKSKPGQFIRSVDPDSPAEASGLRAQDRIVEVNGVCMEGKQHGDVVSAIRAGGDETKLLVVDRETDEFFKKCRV

In another assay the target is T4, NHERF3_2, Q5T2W1.
T4 sequence (Q5T2W1 129-225, limits assumed, looked up): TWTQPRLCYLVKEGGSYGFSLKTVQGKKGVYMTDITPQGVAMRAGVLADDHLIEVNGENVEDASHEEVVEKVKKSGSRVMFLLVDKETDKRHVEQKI

A further assay deals with T5, PDZD2_1, O15018.
T5 sequence (O15018 80-192, limits assumed, looked up): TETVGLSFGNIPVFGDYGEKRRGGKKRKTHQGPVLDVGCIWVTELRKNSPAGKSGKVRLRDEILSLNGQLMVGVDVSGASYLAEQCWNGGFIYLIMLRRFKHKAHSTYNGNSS

The target in another assay is T6, PDZD2_3, O15018.
T6 sequence (O15018 581-682, limits assumed, looked up): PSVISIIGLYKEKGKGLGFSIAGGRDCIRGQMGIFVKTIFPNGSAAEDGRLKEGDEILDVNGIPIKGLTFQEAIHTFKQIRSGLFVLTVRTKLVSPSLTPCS

The next assay concerns the target T7, PDZRN3_2, Q9UPQ7.
T7 sequence (Q9UPQ7 414-513, limits assumed, looked up): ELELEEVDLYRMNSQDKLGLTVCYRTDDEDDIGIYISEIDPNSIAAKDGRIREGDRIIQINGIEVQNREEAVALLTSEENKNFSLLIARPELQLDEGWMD

In another assay the target is T8, PREX2_2, Q70Z35.
T8 sequence (Q70Z35 672-764, limits assumed, looked up): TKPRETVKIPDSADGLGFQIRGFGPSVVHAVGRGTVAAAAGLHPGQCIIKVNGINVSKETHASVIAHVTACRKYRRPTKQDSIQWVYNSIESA

In a further assay the target is T9, PTPN13_4, Q12923.
T9 sequence (Q12923 1783-1878, limits assumed, looked up): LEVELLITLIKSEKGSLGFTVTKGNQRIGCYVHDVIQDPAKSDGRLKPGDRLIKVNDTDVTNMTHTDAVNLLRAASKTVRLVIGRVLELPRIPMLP

The target of another assay is T10, PTPN13_5, Q12923.
T10 sequence (Q12923 1877-1975, limits assumed, looked up): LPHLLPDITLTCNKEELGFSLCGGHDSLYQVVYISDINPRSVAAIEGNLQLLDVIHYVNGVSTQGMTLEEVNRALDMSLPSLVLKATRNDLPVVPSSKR

Another assay deals with T11, PTPN4, P29074.
T11 sequence (P29074 512-599, limits assumed, looked up): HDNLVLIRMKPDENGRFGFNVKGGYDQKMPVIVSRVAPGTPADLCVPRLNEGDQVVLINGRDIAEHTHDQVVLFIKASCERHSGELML

Another assay addresses T12, SHROOM2, Q13796.
T12 sequence (Q13796 21-118, limits assumed, looked up): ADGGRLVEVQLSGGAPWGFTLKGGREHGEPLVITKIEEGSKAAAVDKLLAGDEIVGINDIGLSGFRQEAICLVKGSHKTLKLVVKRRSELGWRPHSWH

A further assay addresses T13, SHROOM4, Q9ULL8.
T13 sequence (Q9ULL8 5-102, limits assumed, looked up): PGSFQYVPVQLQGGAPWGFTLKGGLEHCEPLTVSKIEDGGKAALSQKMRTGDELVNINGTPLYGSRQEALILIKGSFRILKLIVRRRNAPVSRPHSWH

In the next assay the target is T14, SNTG1, Q9NSN8.
T14 sequence (Q9NSN8 52-150, limits assumed, looked up): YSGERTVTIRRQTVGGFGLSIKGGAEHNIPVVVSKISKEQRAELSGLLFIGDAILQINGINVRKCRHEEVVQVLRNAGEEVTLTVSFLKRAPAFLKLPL

Another assay concerns the target T15, USH1C_1, Q9Y6N9.
T15 sequence (Q9Y6N9 82-179, limits assumed, looked up): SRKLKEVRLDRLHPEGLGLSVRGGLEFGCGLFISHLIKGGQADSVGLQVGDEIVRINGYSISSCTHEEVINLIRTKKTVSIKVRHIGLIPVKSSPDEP

The mark [1] stands for this setting: plain residues with an end cap or a label only (N-terminal biotin on a linker: none).
The mark [2] stands for this setting: plain residues with an end cap or a label only (N-terminal biotin on a linker: ttds).

Sequence of IL16_2, Q14005 (Q14005 350-450): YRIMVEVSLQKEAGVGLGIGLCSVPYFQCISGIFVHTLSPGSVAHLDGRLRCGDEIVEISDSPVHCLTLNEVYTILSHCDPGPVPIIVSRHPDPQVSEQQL
Sequence of ARHGEF12, Q9NZN5-2 (Q9NZN5 other isoform, or with tags, fused parts or gaps): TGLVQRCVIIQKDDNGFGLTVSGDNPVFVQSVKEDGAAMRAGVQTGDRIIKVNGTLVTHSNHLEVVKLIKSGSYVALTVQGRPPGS
Sequence of DLG5_2, Q8TDM6 (Q8TDM6 714-800): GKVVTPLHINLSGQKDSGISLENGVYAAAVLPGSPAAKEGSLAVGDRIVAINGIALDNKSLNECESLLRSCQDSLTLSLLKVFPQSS
Sequence of MAGI1_3, Q96QZ7 (Q96QZ7 638-725): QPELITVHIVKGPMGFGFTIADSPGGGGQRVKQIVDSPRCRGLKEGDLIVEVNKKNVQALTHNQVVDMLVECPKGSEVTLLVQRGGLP
Sequence of NHERF2_1, Q15599 (Q15599 9-91): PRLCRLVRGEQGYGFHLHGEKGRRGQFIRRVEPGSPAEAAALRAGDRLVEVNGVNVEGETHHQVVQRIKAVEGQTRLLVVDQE
Sequence of LMO7, Q8WWI1 (Q8WWI1 1037-1138): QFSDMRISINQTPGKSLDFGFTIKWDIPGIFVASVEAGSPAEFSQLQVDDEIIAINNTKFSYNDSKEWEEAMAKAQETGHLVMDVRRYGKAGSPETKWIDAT
Sequence of CNKSR3, Q6P9H4 (Q6P9H4 203-303): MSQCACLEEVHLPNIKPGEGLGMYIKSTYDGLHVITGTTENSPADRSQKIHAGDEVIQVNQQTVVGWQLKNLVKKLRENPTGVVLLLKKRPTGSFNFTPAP

The pKd is the negative decadic logarithm of the Kd, by convention in mol/L. For NLNSSRVPDLLV [SARS-CoV2-E, P0DTC4], the pKd entry with APBA3_2, O96018 (setting [1]) is given as “below the threshold”; in the assay with ARHGEF12, Q9NZN5-2 (setting [1]), “below the threshold”; with CNKSR3, Q6P9H4 (setting [1]) it was “below the threshold”; with DLG5_2, Q8TDM6 (setting [1]), “below the threshold”; with DVL1, O14640 (setting [1]), “below the threshold”; with IL16_2, Q14005 (setting [1]), “below the threshold”. The pKd result with LMO7, Q8WWI1 (setting [1]) was “below the threshold”; in the assay with MAGI1_3, Q96QZ7 (setting [1]), “below the threshold”; in the assay with NHERF1_2, O14745 (setting [1]), 4.76; in the assay with NHERF2_1, Q15599 (setting [1]) it was “below the threshold”; in the assay with NHERF3_2, Q5T2W1 (setting [1]), “below the threshold”; with PDZD2_1, O15018 (setting [1]), “below the threshold”. The pKd result in the assay with PDZD2_3, O15018 (setting [1]) was “below the threshold”; in the assay with PDZRN3_2, Q9UPQ7 (setting [1]), “below the threshold”; with PREX2_2, Q70Z35 (setting [1]), “below the threshold”; with PTPN13_4, Q12923 (setting [1]), 4.64; with PTPN13_5, Q12923 (setting [1]) it was “below the threshold”; in the assay with PTPN4, P29074 (setting [1]) it was “below the threshold”. Also, the pKd entry with SHROOM2, Q13796 (setting [1]) is reported as “below the threshold”; in the assay with SHROOM4, Q9ULL8 (setting [1]) it was “below the threshold”; with SNTG1, Q9NSN8 (setting [1]) it was “below the threshold”; with USH1C_1, Q9Y6N9 (setting [1]), “below the threshold”.

As for RLPKIKETTV [FRMPD4, Q14CM0], the pKd with APBA3_2, O96018 (setting [2]) was 4.47; with ARHGEF12, Q9NZN5-2 (setting [2]), 4.23; with CNKSR3, Q6P9H4 (setting [2]) it was 4.24; with DLG5_2, Q8TDM6 (setting [2]), 4.7; with DVL1, O14640 (setting [2]), 4.63; with IL16_2, Q14005 (setting [2]), “below the threshold”. Moreover, the pKd in the assay with LMO7, Q8WWI1 (setting [2]) is 4.45; with MAGI1_3, Q96QZ7 (setting [2]), 4.82; with NHERF1_2, O14745 (setting [2]), “below the threshold”; with NHERF2_1, Q15599 (setting [2]), “below the threshold”; in the assay with NHERF3_2, Q5T2W1 (setting [2]), “below the threshold”; with PDZD2_1, O15018 (setting [2]), “below the threshold”. Also, the pKd result with PDZD2_3, O15018 (setting [2]) is “below the threshold”; with PDZRN3_2, Q9UPQ7 (setting [2]) it was “below the threshold”; with PREX2_2, Q70Z35 (setting [2]), 4.25; with PTPN13_4, Q12923 (setting [2]) it was “below the threshold”; in the assay with PTPN13_5, Q12923 (setting [2]) it was “below the threshold”; with PTPN4, P29074 (setting [2]) it was 5.14. The pKd result in the assay with SHROOM2, Q13796 (setting [2]) was “below the threshold”; with SHROOM4, Q9ULL8 (setting [2]) it was “below the threshold”; in the assay with SNTG1, Q9NSN8 (setting [2]) it was 5.02; in the assay with USH1C_1, Q9Y6N9 (setting [2]), “below the threshold”.

Regarding RPLPRKVSQL [DOCK4, Q8N1I0], the pKd result with APBA3_2, O96018 (setting [2]) was “below the threshold”; with ARHGEF12, Q9NZN5-2 (setting [2]), 4.62; with CNKSR3, Q6P9H4 (setting [2]), “below the threshold”; with DLG5_2, Q8TDM6 (setting [2]) it was “below the threshold”; with DVL1, O14640 (setting [2]), “below the threshold”; with IL16_2, Q14005 (setting [2]), “below the threshold”. Further, the pKd entry with LMO7, Q8WWI1 (setting [2]) was “below the threshold”; with MAGI1_3, Q96QZ7 (setting [2]), “below the threshold”; with NHERF1_2, O14745 (setting [2]), 4.45; with NHERF2_1, Q15599 (setting [2]), “below the threshold”; with NHERF3_2, Q5T2W1 (setting [2]) it was “below the threshold”; with PDZD2_1, O15018 (setting [2]), “below the threshold”. The pKd entry is given as “below the threshold” in the assay with PDZD2_3, O15018 (setting [2]); “below the threshold” with PDZRN3_2, Q9UPQ7 (setting [2]); “below the threshold” in the assay with PREX2_2, Q70Z35 (setting [2]); “below the threshold” with PTPN13_4, Q12923 (setting [2]); “below the threshold” with PTPN13_5, Q12923 (setting [2]); “below the threshold” in the assay with PTPN4, P29074 (setting [2]). The pKd result with SHROOM2, Q13796 (setting [2]) was “below the threshold”; with SHROOM4, Q9ULL8 (setting [2]), “below the threshold”; with SNTG1, Q9NSN8 (setting [2]), “below the threshold”; with USH1C_1, Q9Y6N9 (setting [2]), “below the threshold”.

(Values after article PMC9482650, “Quantitative fragmentomics allow affinity mapping of interactomes” (Nature Communications, 2022).)
